Results on 24 variants are retold here after the supplement of paper PMC7125110.

± gives the standard error. This sample holds only a part of the variants without activity.

To fix the notation:
B1: glmS ribozyme (parent)
chain: AUAAAAGCGCCAGAACUACAGAAAUGUAGUUGACGAGGAGGAGGUUUAUCGAAUUUUCGGCGGAUGCCUCCAAA

Holding throughout (conditions): with glucosamine-6-phosphate
The variants in series [1] derive from B1. In words: self-cleavage kobs at 640 uM GlcN6P; higher = faster cleavage; RNA array. The method, boiled down:
(§1)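 Using a hybridised Cy3 probe at 37 °C, barcoded ribozyme variants transcribed in situ by E. coli RNA polymerase on sequenced MiSeq chips were monitored across tiles imaged over ~14 h. The flow contained glucosamine-6-phosphate from 40 μM to 10 mM in HEPES/KCl/Mg(OAc)2 buffer. Signals were normalised to baseline and to non-cleaving reference variants before per-tile medians were fit to one- or two-exponential decays to yield kobs. Weighted Michaelis–Menten fits across concentrations gave kcat and KM.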

In series [2] the parent is B1. Put plainly: self-cleavage kobs at 2500 uM GlcN6P; higher = faster cleavage; RNA array. The method, boiled down: as §1
The variants in series [3] derive from B1. In words: self-cleavage kobs at 10000 uM GlcN6P; higher = faster cleavage; RNA array. The method, boiled down: as §1

AUAAAAGCGCCAGAACUACAGAAAUGUAAUUGACUAGGAGGAGGUUUAUCGAAUUUUCGGCGGAUGCCUCCAAA: the “self-cleavage kobs at 640 uM GlcN6P” value with glucosamine-6-phosphate [1] was under 1e-05 s⁻¹. Besides, in the series with glucosamine-6-phosphate [2], the “self-cleavage kobs at 2500 uM GlcN6P” value was under 1e-05 s⁻¹. Besides, in the series with glucosamine-6-phosphate [3], the “self-cleavage kobs at 10000 uM GlcN6P” value was under 1e-05 s⁻¹.
For the variant AUAAAAGCUUCAGAACUACAGAAAUGUAGUUGAGGAGGAGGAGGUUUAUCGAUUUUUCGGCGCAAGCCUCCAAA, the “self-cleavage kobs at 640 uM GlcN6P” value with glucosamine-6-phosphate [1] was under 1e-05 s⁻¹.
In the case of AUAAAAGCGCCAGAACUAAAGAAAUGUAGUUGUCGAGGAGGAGGUUUAUCGAAUUUUCGGCGGAUGCCUCCAAA, the “self-cleavage kobs at 640 uM GlcN6P” value with glucosamine-6-phosphate [1] was determined as 4.59e-05 ± 2.2e-05 s⁻¹. In addition, the “self-cleavage kobs at 2500 uM GlcN6P” value with glucosamine-6-phosphate [2] was 0.000114 ± 2.6e-05 s⁻¹.
For the variant AUAAAAGCGCCAGAACUACAGAAAUGUAUUUUACGAGGAGGAGGUUUAUCGAAUUUUUGGCGGAUGACUCCAAA, the “self-cleavage kobs at 640 uM GlcN6P” value in the series with glucosamine-6-phosphate [1] turned out to be 3.68e-05 ± 1.8e-05 s⁻¹. Moreover, in the series with glucosamine-6-phosphate [2], the “self-cleavage kobs at 2500 uM GlcN6P” value worked out at 8.93e-05 ± 2.6e-05 s⁻¹.
As to AUAAAGGCACCAGAACUACAGAAAUGUAGUUGCCGAGGUGUAGGUUUAUCGAUUUUUCGGCGGAUGCCUCCAAA, in the series with glucosamine-6-phosphate [1], the “self-cleavage kobs at 640 uM GlcN6P” value is under 1e-05 s⁻¹.
Turning to AUAAAAGCUGCAGAGCUACAGAAAUGUAGUUGACGAGUGGGAGGUUUAUCGUAUUUUCGGCGGAUGCCUCCAAA, the “self-cleavage kobs at 640 uM GlcN6P” value with glucosamine-6-phosphate [1] was under 1e-05 s⁻¹. Besides, in the series with glucosamine-6-phosphate [2], the “self-cleavage kobs at 2500 uM GlcN6P” value was under 1e-05 s⁻¹. In addition, the “self-cleavage kobs at 10000 uM GlcN6P” value with glucosamine-6-phosphate [3] is under 1e-05 s⁻¹.
Take AUAAAAGCGCCAGUACUACAGAAAUGUAGUUGACAAGGACGAGGUUUAUCGAAUUUUCGGCGGAUGCCUCCAAA: the “self-cleavage kobs at 640 uM GlcN6P” value in the series with glucosamine-6-phosphate [1] was under 1e-05 s⁻¹.
For the variant AUAAAAGCGCCAGAACUACAGAAAUGUAGUUGACGAGGAGGAGGUUUAUGGAAUUUACGGCGGUUGCCUCCAAA, the “self-cleavage kobs at 640 uM GlcN6P” value with glucosamine-6-phosphate [1] stood at 0.000127 ± 5.8e-05 s⁻¹.
With AUAAAAGCGCCAGAACUACAGAAAUGUAGUUGACGAGGAGGAGGUUUAUCGAAAUUUCGGGGGAUGCCUCGAAA, in the series with glucosamine-6-phosphate [1], the “self-cleavage kobs at 640 uM GlcN6P” value came out at 7.31e-05 ± 1.7e-05 s⁻¹. In addition, the “self-cleavage kobs at 2500 uM GlcN6P” value with glucosamine-6-phosphate [2] was determined as 0.000139 ± 4.6e-05 s⁻¹.
AUAAAAACGCCAGAACUACAGAAAUGUAGUUGACGAGGAGGCGGUUUAUCGGAUAUUCGGCGGAUGCCUCCAAA: in the series with glucosamine-6-phosphate [1], the “self-cleavage kobs at 640 uM GlcN6P” value was under 1e-05 s⁻¹. In the series with glucosamine-6-phosphate [2], the “self-cleavage kobs at 2500 uM GlcN6P” value is under 1e-05 s⁻¹.
Take AUAAAAGCGCCAGAACUACAGAAAUGUAGUUGAAGAGGAGGCGGUUUAUCGAAUUUUCGGCGGAUGCCUACAAA: in the series with glucosamine-6-phosphate [1], the “self-cleavage kobs at 640 uM GlcN6P” value was under 1e-05 s⁻¹.
Still for that read-out and setting: then AUAAAAGCGCCAGAACUACAGAAAUGUAGUUGACGAGCAGGAGGUUUAUCUAAUUUUCAACGGAUGCCUCCAAA, with under 1e-05 s⁻¹.
In the case of AUAAAAGCGCCAGCACUACAGAAAUGUAGUUGACGAGGAGGAGGUUUAGCGAAUUUUCGGCGGAUGCUUCCAAA, in the series with glucosamine-6-phosphate [1], the “self-cleavage kobs at 640 uM GlcN6P” value is under 1e-05 s⁻¹.
For the variant AUAAAAGCGCCAGAACUACAGAAAUGUAGUCGACGAGGAGAAGGUUUAUCGAAUUUUCGGCGCAUGCAUCCAAA, the “self-cleavage kobs at 640 uM GlcN6P” value in the series with glucosamine-6-phosphate [1] is under 1e-05 s⁻¹.
For AUAAAAGCGCCAGAACUACAGAAAUGUAGUUGACGAAGAGAAGGUUUAUCGAAUUUUCGGCGGAUGCCUUCAAA, the “self-cleavage kobs at 640 uM GlcN6P” value with glucosamine-6-phosphate [1] worked out at 0.00119 ± 0.00026 s⁻¹. In the series with glucosamine-6-phosphate [2], the “self-cleavage kobs at 2500 uM GlcN6P” value came to 0.00206 ± 0.00053 s⁻¹.
On to AUAAAAGCGCCAAAACUACAGAAAUGUAGUUGACGAGGAGGCGGUUUAUCCAAUUUUCGGAGGAUGCCUCCAAA, for which, in the series with glucosamine-6-phosphate [1], the “self-cleavage kobs at 640 uM GlcN6P” value is under 1e-05 s⁻¹. In addition, the “self-cleavage kobs at 2500 uM GlcN6P” value with glucosamine-6-phosphate [2] was under 1e-05 s⁻¹.
As for AUAAAAGCGCCCGAACUACAGAAAUGUAGUUAACGAGGAGGAGGUUUAUCGAAUUUUCGGCGGGUGCCUCAAAA, the “self-cleavage kobs at 640 uM GlcN6P” value with glucosamine-6-phosphate [1] was under 1e-05 s⁻¹.
AUAAAAGCGCUAGAACUACAGAAAUGUAGUUGACGAGGAGGAGGUUUAUCGAAUGUUCGGCGGAUGCCUACAAA: the “self-cleavage kobs at 640 uM GlcN6P” value with glucosamine-6-phosphate [1] was found to be 8.31e-05 ± 3.3e-05 s⁻¹. In addition, the “self-cleavage kobs at 2500 uM GlcN6P” value with glucosamine-6-phosphate [2] stood at 0.000101 ± 2.5e-05 s⁻¹.
Turning to AUAAAAGCGCCAGAACUACAGAAAUGUAGUUGCCGAGGAGGCGGUUGAUCGAAUUGUCGGCGGAUGCCUCCAAA, the “self-cleavage kobs at 640 uM GlcN6P” value in the series with glucosamine-6-phosphate [1] is under 1e-05 s⁻¹.
For the variant AUAAAAGCGCCAGAACUACAGAAAUGUAGCCGACGAGGAGGAGGUUUAUCGAAUUUUCUGGGGAUGCCUGCAAA, the “self-cleavage kobs at 640 uM GlcN6P” value in the series with glucosamine-6-phosphate [1] is under 1e-05 s⁻¹.
With AUAAAAGCGCCAGAACUACAGAAAUGUAGUUGACGAGGAGGUGGUUUAUGGAAUUUUCGGCAGAUGCCUCUAAA, the “self-cleavage kobs at 640 uM GlcN6P” value with glucosamine-6-phosphate [1] is under 1e-05 s⁻¹. Moreover, the “self-cleavage kobs at 2500 uM GlcN6P” value with glucosamine-6-phosphate [2] was under 1e-05 s⁻¹.
For AUAAAAGCGCCAGAACUACAGAAAUGUAGUUGACGAGGAGGAGGUUUAUAGAAUUUUCGGGGGAUGCUUCCAAA, the “self-cleavage kobs at 640 uM GlcN6P” value with glucosamine-6-phosphate [1] was determined as 8.62e-05 ± 2.5e-05 s⁻¹.
Same read-out and setting: the same measure for AUAAAAGCGCCAGAACUACAGAAAUGUAGUUGACGAGGAGGAGGUUUUCCGAAUACUCGGCGGAUGCCCCCAAA: under 1e-05 s⁻¹; for AUAAAAGCGCCAGAACUACAGAAAUGUAGUUGACGAGGAGGAGGUUUAAUGAAUUUUCGGCGGAUGAGUCAAAA: 5.04e-05 ± 1.8e-05 s⁻¹.
